Test results taken from IntAct's records for PubMed 25789606.

B1: Ameloblastin (Homo sapiens), Q9NP70 (parent)
chain: MSASKIPLFKMKDLILILCLLEMSFAVPFFPQQSGTPGMASLSLETMRQLGSLQRLNTLSQYSRYGFGKSFNSLWMHGLLPPHSSLPWMRPREHETQQYEYSLPVHPPPLPSQPSLKPQQPGLKPFLQSAAATTNQATALKEALQPPIHLGHLPLQEGELPLVQQQVAPSDKPPKPELPGVDFADPQGPSLPGMDFPDPQGPSLPGLDFADPQGSTIFQIARLISHGPMPQNKQSPLYPGMLYVPFGANQLNAPARLGIMSSEEVAGGREDPMAYGAMFPGFGGMRPGFEGMPHNPAMGGDFTLEFDSPVAATKGPENEEGGAQGSPMPEANPDNLENPAFLTELEPAPHAGLLALPKDDIPGLPRSPSGKMKGLPSVTPAAADPLMTPELADVYRTYDADMTTSVDFQEEATMDTTMAPNSLQTSMPGNKAQEPEMMHDAWHFQEP

Variants of: B1
Settings: with fa20c_human FAM20C

Row | Variant | effect of a mutation on the interaction
1 | MSASKIPLFKMKDLILILCLLEMSFAVPFFPQQSGTPGMAALSLETMRQLGSLQRLNTLSQYSRYGFGKSFNSLWMHGLLPPHSSLPWMRPREHETQQYEYSLPVHPPPLPSQPSLKPQQPGLKPFLQSAAATTNQATALKEALQPPIHLGHLPLQEGELPLVQQQVAPSDKPPKPELPGVDFADPQGPSLPGMDFPDPQGPSLPGLDFADPQGSTIFQIARLISHGPMPQNKQSPLYPGMLYVPFGANQLNAPARLGIMSSEEVAGGREDPMAYGAMFPGFGGMRPGFEGMPHNPAMGGDFTLEFDSPVAATKGPENEEGGAQGSPMPEANPDNLENPAFLTELEPAPHAGLLALPKDDIPGLPRSPSGKMKGLPSVTPAAADPLMTPELADVYRTYDADMTTSVDFQEEATMDTTMAPNSLQTSMPGNKAQEPEMMHDAWHFQEP [S41A] | with no effect
2 | MSASKIPLFKMKDLILILCLLEMSFAVPFFPQQAGTPGMASLSLETMRQLGSLQRLNTLSQYSRYGFGKSFNSLWMHGLLPPHSSLPWMRPREHETQQYEYSLPVHPPPLPSQPSLKPQQPGLKPFLQSAAATTNQATALKEALQPPIHLGHLPLQEGELPLVQQQVAPSDKPPKPELPGVDFADPQGPSLPGMDFPDPQGPSLPGLDFADPQGSTIFQIARLISHGPMPQNKQSPLYPGMLYVPFGANQLNAPARLGIMSSEEVAGGREDPMAYGAMFPGFGGMRPGFEGMPHNPAMGGDFTLEFDSPVAATKGPENEEGGAQGSPMPEANPDNLENPAFLTELEPAPHAGLLALPKDDIPGLPRSPSGKMKGLPSVTPAAADPLMTPELADVYRTYDADMTTSVDFQEEATMDTTMAPNSLQTSMPGNKAQEPEMMHDAWHFQEP [S34A] | with no effect
3 | MSASKIPLFKMKDLILILCLLEMSFAVPFFPQQSGAPGMASLSLETMRQLGSLQRLNTLSQYSRYGFGKSFNSLWMHGLLPPHSSLPWMRPREHETQQYEYSLPVHPPPLPSQPSLKPQQPGLKPFLQSAAATTNQATALKEALQPPIHLGHLPLQEGELPLVQQQVAPSDKPPKPELPGVDFADPQGPSLPGMDFPDPQGPSLPGLDFADPQGSTIFQIARLISHGPMPQNKQSPLYPGMLYVPFGANQLNAPARLGIMSSEEVAGGREDPMAYGAMFPGFGGMRPGFEGMPHNPAMGGDFTLEFDSPVAATKGPENEEGGAQGSPMPEANPDNLENPAFLTELEPAPHAGLLALPKDDIPGLPRSPSGKMKGLPSVTPAAADPLMTPELADVYRTYDADMTTSVDFQEEATMDTTMAPNSLQTSMPGNKAQEPEMMHDAWHFQEP [T36A] | with no effect
4 | MSASKIPLFKMKDLILILCLLEMSFAVPFFPQQSGTPGMASLSLEAMRQLGSLQRLNTLSQYSRYGFGKSFNSLWMHGLLPPHSSLPWMRPREHETQQYEYSLPVHPPPLPSQPSLKPQQPGLKPFLQSAAATTNQATALKEALQPPIHLGHLPLQEGELPLVQQQVAPSDKPPKPELPGVDFADPQGPSLPGMDFPDPQGPSLPGLDFADPQGSTIFQIARLISHGPMPQNKQSPLYPGMLYVPFGANQLNAPARLGIMSSEEVAGGREDPMAYGAMFPGFGGMRPGFEGMPHNPAMGGDFTLEFDSPVAATKGPENEEGGAQGSPMPEANPDNLENPAFLTELEPAPHAGLLALPKDDIPGLPRSPSGKMKGLPSVTPAAADPLMTPELADVYRTYDADMTTSVDFQEEATMDTTMAPNSLQTSMPGNKAQEPEMMHDAWHFQEP [T46A] | with no effect
